Results as given in the supplement of paper PMC11865577.

The sequences below were run on TO-3-N3 (biotin conjugate) (assay: pull-down binding Z-score (relative to library population); higher = stronger binding). Details: RNA library: Library-2.
How it was run: (§1)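 A heat-folded, dye-end-labelled (Cy5 or Cy3) RNA library (1 μg, phosphate/NaCl/KCl buffer) was exposed for 60 min at 25 °C to streptavidin beads holding 100 pmol of biotin-conjugated small molecule. RNA retained on the beads was eluted in hot SDS and hybridised to a DNA barcode microarray for 20 h at 55.5 °C. Binding scores were Z-scores against the library mean and standard deviation, calculated after subtracting beads alone and taking trimmed means of replicate probes.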

Sequence	pull-down binding Z-score
UAUUUCAAAAGACUAGAGGUAGGAAAUGAG [hsa-mir-3975]	-0.57
UAUUUUGUUAUUCUGGUCACAGAAUGACCUAGUA [hsa-mir-630]	0.141
UCAAACAAGUUUCCAAAUUGUUUGA [hsa-mir-488]	0.554
UCACAAUUGCGCUACAGAACUGUUGA [hsa-mir-203b]	0.859
UCACAGGGCUCAGGGAAUGUGUCUGCACCUGUGA [hsa-mir-587]	0.431
UCACAGUUGGUUUCUGACACGUGG [hsa-mir-4535]	0.237
UCACUGCUGCUGGCGCCCUGA [hsa-mir-943]	0.0735
UCACUGUGAACAGUCUCAGUCAGUGA [hsa-mir-183]	-0.81
UCAGACACAUCAGAUCCCUUAUCUGUAAAAUGGGCAUGA [hsa-mir-640]	-0.19
UCAGAUAUUUAAGUUAACAGUAUUUGA [hsa-mir-580]	-0.784
UCAGCACCUGAACGCCAAGGCUGG [hsa-mir-3150a]	-0.481
UCAGCCCCAUAUGUAUCUGAAGGCUGA [hsa-mir-5694]	-0.404
UCAGCUGUAAUACAUGGAUUGGCUGG [hsa-mir-30b]	-0.368
UCAGCUGUGAGCUCAAGGUGGCUGG [hsa-mir-30c-1]	0.424
UCAGCUGUGGAAAGUAAGAAAGCUGG [hsa-mir-30c-2]	0.97
UCAGGAUCUACUCAUGUCGUCUUUGG [hsa-mir-573]	-0.404
UCAGGCUUUAAUGUUUGAAGUAAUGUCAGU [hsa-mir-6874]	0.511
UCAGGGAGAAAGUGCAUACAGCCCCUG [hsa-mir-328]	-0.47
UCAGGUGAAUGUGUCUGG [hsa-mir-3916]	-0.539
UCAGUUUUGUAGCAUCAAAACU [hsa-mir-4521]	-0.308
UCAUAAAGAUGAUC [hsa-mir-8067]	0.251
UCAUAAAUAUUUUAAGGAAUGACCCGGCCCUGGGG [hsa-mir-4285]	-0.306
UCAUUUAUGUGAACUAAAAUAUAAAUUU [hsa-mir-513a-2_513a-1]	-1.03
UCCAACCUGAAAUCCUUCUGUAGGUUGAG [hsa-mir-5702]	-0.291
UCCACAAGGAGGGGAUGACCCUUGUGGG [hsa-mir-4437]	4.12

Sequence	pull-down binding Z-score
UCCACACUGACAAGGGCCGUGGGG [hsa-mir-3191]	1.19
UCCACCCCCAGAGAAUCCCUAAACCGGGGGUGGA [hsa-mir-1289-1]	-0.51
UCCACCCUGGUCCAGGUCCACAGCAGUGGA [hsa-mir-4644]	0.173
UCCACCUAGACGGGCCUGGGUCAA [hsa-mir-4698]	0.349
UCCAGACGGAGAUGCGA [hsa-mir-611]	-0.353
UCCAGAGGCAUCCCUAACCCAGAAUCUUUUGACUGUCCUCUGGA [hsa-mir-4306]	-0.198
UCCAGCUGUGUGAUAUUCUGCUG [hsa-mir-19b-1]	0.907
UCCAGGAUCUGGGUUUUGAGGUCUUGG [hsa-mir-4309]	0.835
UCCAGGCAUCUGUGUCUG [hsa-mir-4669]	1.48
UCCAGGGCUCCUGACACCUGGA [hsa-mir-6861]	-0.649
UCCAGUGUGGCUCGGAGGCUGGA [hsa-mir-139]	0.91
UCCAUGAAAAGAACCCAUGGG [hsa-mir-4471]	-0.455
UCCCAGCCACUCUGGAGG [hsa-mir-4419b]	0.274
UCCCAGGAAAUUCACUUUAGGAAGUCCUAGGA [hsa-mir-5571]	-0.734
UCCCAGGCCCUUCCUCCAAUACUGGGA [hsa-mir-4666b]	-0.252
UCCCAUUUCCACAUGGAGAGUGGAGCCCAGA [hsa-mir-3123]	0.384
UCCCCAGAAGCUGAGGAUUAGGGGA [hsa-mir-6503]	0.0937
UCCCCUAGCGCGCCUUCUGGAGA [hsa-mir-3188]	-0.271
UCCCCUCAGGA [hsa-mir-5703]	0.0295
UCCCUUCCUGGACACACAGGAGGAGA [hsa-mir-5680]	-0.738
UCCGGCCGGCCAUGCUGGCGGGG [hsa-mir-762]	-0.72
UCCUAGGCGGGUCGCUGCGGUACCUCCCUCCUGUCUGUGGCGGUGGGAUCCCGUGGCCGUGUUUUCCUGGUG [hsa-mir-663b]	-0.114
UCCUCAGACCAGGUGGCUCCCGAGCCACCCCAGGCUGUAGG [hsa-mir-2392]	-0.0269
UCCUCCACAAAUGCGUGUGGAGGA [hsa-mir-4633]	-0.89
UCCUCCAUGCUUGGAAAAUGCAGGGAGGA [hsa-mir-764]	-0.857

Sequence	pull-down binding Z-score
UCCUCUCCUGGUCUGGGAGGAUAGAAGAGAGGA [hsa-mir-5191]	-0.205
UCCUGAGACAGGA [hsa-mir-4261]	-0.563
UCCUGAGCUAGGAGGAUUAGGA [hsa-mir-5093]	-0.171
UCCUGAUCUGAUGGAAGUCAUGA [hsa-mir-7843]	-0.312
UCCUGAUGGUCCCCUCCCCAGGG [hsa-mir-185]	0.122
UCCUGGGAAGCAUGGUAGCCAGGA [hsa-mir-5192]	0.314
UCCUGUAGUGUCUUAUAUACAAUACAGUAGGA [hsa-mir-613]	-0.741
UCCUUUUCUCUACCUUGUAGAGAAGCA [hsa-mir-3609]	0.0918
UCGAGAGGUCAGAGGAUUGCUCCUGA [hsa-mir-5585]	0.00526
UCGCCUAGGGCUCUGAGCAGGGCA [hsa-mir-211]	1.36
UCGGCACUAUUGUGACUGU [hsa-mir-7855]	0.693
UCGUCAGUGUUUGA [hsa-mir-8073]	-0.443
UCUAUCUGUAUUCUUACUGAAGGGA [hsa-mir-504]	-0.739
UCUCAAAAUAAUUCUGCAGUGAGA [hsa-mir-4524b]	-0.872
UCUCAAUCCAUUCAUAUUGAAA [hsa-mir-3662]	0.563
UCUGCAGGUUCGCACUGAUGCCUGCUCG [hsa-mir-6726]	0.0628
UCUGCUUUAUUUCAUCAAAGCAGA [hsa-mir-4773-1]	-0.916
UCUGCUUUGAUGAAAUAAAGCAGA [hsa-mir-4773-2]	-0.145
UCUGGGGAGAGAGUCCUCUUUUCAGC [hsa-mir-8082]	0.432
UCUGUUGCUUGAAAGAAGAGA [hsa-mir-526a-1]	0.85
UCUGUUGUCUGAAAGAAAACA [hsa-mir-518b_518c]	-0.441
UCUGUUUGUUUUCUCUUAAACA [hsa-mir-519d]	-0.418
UCUGUUUUAAGUAACAGA [hsa-mir-7705]	-0.812
UCUUAGACUAUUACAAGA [hsa-mir-3672]	0.922
UCUUAGCACGGGGUCUAAGG [hsa-mir-4747]	-0.188

What follows are sequences tested on TO-3-N3-2 (biotin conjugate) in the same assay as above. Details: RNA library: Library-2.
How it was run: as §1

Sequence	pull-down binding Z-score
UAUUUCAAAAGACUAGAGGUAGGAAAUGAG [hsa-mir-3975]	0.381
UAUUUUGUUAUUCUGGUCACAGAAUGACCUAGUA [hsa-mir-630]	-0.134
UCAAACAAGUUUCCAAAUUGUUUGA [hsa-mir-488]	-0.496
UCACAAUUGCGCUACAGAACUGUUGA [hsa-mir-203b]	0.314
UCACAGGGCUCAGGGAAUGUGUCUGCACCUGUGA [hsa-mir-587]	0.0576
UCACAGUUGGUUUCUGACACGUGG [hsa-mir-4535]	-0.0393
UCACUGCUGCUGGCGCCCUGA [hsa-mir-943]	0.0365
UCACUGUGAACAGUCUCAGUCAGUGA [hsa-mir-183]	-0.331
UCAGACACAUCAGAUCCCUUAUCUGUAAAAUGGGCAUGA [hsa-mir-640]	-0.013
UCAGAUAUUUAAGUUAACAGUAUUUGA [hsa-mir-580]	-0.347
UCAGCACCUGAACGCCAAGGCUGG [hsa-mir-3150a]	-0.591
UCAGCCCCAUAUGUAUCUGAAGGCUGA [hsa-mir-5694]	-0.286
UCAGCUGUAAUACAUGGAUUGGCUGG [hsa-mir-30b]	-0.198
UCAGCUGUGAGCUCAAGGUGGCUGG [hsa-mir-30c-1]	0.093
UCAGCUGUGGAAAGUAAGAAAGCUGG [hsa-mir-30c-2]	1.22
UCAGGAUCUACUCAUGUCGUCUUUGG [hsa-mir-573]	-0.199
UCAGGCUUUAAUGUUUGAAGUAAUGUCAGU [hsa-mir-6874]	0.146
UCAGGGAGAAAGUGCAUACAGCCCCUG [hsa-mir-328]	-0.166
